The source of these data is publication PMC12124358 (Science Advances, 2025).

The assay deals with Clr4 lysine methyltransferase (KMT) domain (residues 192 to 490) (S. pombe, UniProt O60016 192-490). The assay is described as follows: ITC.
Sequence of Clr4 lysine methyltransferase (KMT) domain (residues 192 to 490) (O60016 192-490): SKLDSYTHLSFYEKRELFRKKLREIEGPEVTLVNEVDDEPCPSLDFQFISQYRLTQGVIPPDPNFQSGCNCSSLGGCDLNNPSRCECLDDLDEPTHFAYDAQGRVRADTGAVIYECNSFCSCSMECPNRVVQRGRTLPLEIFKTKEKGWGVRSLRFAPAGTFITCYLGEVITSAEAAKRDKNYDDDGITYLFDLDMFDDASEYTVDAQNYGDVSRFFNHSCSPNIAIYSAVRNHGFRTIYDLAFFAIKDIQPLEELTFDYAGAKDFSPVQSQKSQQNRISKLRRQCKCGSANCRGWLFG

B1: H3(1–20)_([change])-Ub_([change]), disulfide bond-linked ubiquitinated H3 tail (other)
chain 1: ARTKQTARKSTGGCAPRKQL
chain 2: […]
The molecule B1 showed a Kd of 133 ± 13 µM.
